The text below walks through data of patent US20030022265.

For data set [1], the system named is product of plasmid pADH-SteInv.
In data set [2] the target is T1, fusion protein comprising Golgi recognition signal and transmembrane domain of yeast Golgi protein Ste13, cleavage site of yeast α-factor, and yeast invertase (UniProt P33894).
T1 sequence: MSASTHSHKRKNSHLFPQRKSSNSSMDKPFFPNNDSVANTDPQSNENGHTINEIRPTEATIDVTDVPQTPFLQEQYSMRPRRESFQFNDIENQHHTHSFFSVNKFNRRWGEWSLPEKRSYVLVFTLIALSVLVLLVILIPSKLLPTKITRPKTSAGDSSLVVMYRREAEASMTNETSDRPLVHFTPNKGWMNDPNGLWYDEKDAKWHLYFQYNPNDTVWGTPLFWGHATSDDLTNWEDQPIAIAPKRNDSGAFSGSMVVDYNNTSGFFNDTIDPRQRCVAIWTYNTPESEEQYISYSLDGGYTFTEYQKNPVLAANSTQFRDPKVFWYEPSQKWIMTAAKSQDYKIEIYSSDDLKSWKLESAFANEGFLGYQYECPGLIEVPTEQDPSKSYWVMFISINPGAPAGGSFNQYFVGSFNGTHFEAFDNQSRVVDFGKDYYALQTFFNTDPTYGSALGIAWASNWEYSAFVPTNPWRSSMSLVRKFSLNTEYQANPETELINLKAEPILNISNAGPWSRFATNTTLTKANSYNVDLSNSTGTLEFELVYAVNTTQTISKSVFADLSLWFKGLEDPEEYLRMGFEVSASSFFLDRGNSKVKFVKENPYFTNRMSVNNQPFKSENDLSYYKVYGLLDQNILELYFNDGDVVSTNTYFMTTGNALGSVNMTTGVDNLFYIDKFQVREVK

Data set [3] deals with plasmid library of pADH-SteSubInv with random substitution of the 5th and 6th amino acids of cleavage region of α-factor.

For Kex2, the “viability of cotransformed suc2, kex2 mutant yeast on sucrose-containing plate” value in data set [1] is “transformants of test groups 2 to 4 were not able to grow on sucrose plates”; in data set [2], “transformants of test group 1 were survived both on glucose-containing and sucrose-containing plates”. In addition, in data set [3], the “residues found at the randomised substrate positions in colonies grown on sucrose plates” value is “Various amino acids such as D, E, A, V, P, S, Q, K, R, and H were found at the 6th amino acid, while, solely R was found at the 5th amino acid”.
